Data: US20240309103A1 (Regeneron, published 2024)

Columns and labels:
[1] = target: T1, mouse NPR1 extracellular domain expressed with a C-terminal mouse IgG2a (mNPR1-mFc) (mouse); assay: SPR, Tables 21 to 26
T1 chain: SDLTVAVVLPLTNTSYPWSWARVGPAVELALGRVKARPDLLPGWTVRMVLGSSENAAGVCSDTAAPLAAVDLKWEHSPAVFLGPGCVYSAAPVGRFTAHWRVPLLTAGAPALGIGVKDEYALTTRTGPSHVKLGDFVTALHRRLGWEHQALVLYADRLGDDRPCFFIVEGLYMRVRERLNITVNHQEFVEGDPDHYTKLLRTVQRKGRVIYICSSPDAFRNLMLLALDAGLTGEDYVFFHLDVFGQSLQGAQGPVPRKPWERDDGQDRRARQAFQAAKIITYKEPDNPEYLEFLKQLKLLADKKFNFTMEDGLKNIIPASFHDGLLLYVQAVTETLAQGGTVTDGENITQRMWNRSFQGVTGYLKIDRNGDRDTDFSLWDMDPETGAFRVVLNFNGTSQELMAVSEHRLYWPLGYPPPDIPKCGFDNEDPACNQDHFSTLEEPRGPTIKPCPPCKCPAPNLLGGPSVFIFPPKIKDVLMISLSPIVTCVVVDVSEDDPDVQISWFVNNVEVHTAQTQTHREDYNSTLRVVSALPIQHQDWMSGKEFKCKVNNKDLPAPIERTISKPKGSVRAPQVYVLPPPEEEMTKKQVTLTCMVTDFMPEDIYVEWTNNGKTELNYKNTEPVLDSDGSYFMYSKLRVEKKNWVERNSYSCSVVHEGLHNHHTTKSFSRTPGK
Method: (§1) Equilibrium dissociation constant (KD) for different NPR1 reagents binding to purified anti-NPR1 monoclonal antibodies (mAbs) were determined using a real-time surface plasmon resonance based Biacore 4000 biosensor. All binding studies were performed in 10 mM HEPES, 150 mM NaCl, 3 mM EDTA, and 0.05% v/v Surfactant Tween-20, pH 7.4 (HBS-ET) running buffer at 25° C. and 37° C. The Biacore CM5 sensor chip surface was first derivatized by amine coupling with either mouse anti-human Fc specific mAb (GE Healthcare, #BR100839) or goat anti-human Fcy specific polyclonal antibody (Jackson ImmunoResearch Laboratories, #BR-1008-39) to capture anti-NPR1 mAbs.

[2] = target: T2, human NPR1 extracellular domain expressed with a C-terminal myc-myc-hexahistidine (hNPR1-MMH) (human, UniProt P16066 33-473); assay: SPR, mAb captured, 25 C
T2 construct: also called hNPR.mmh; monomeric human NPR1
Method: as §1

[3] = target: T3, monkey NPR1 extracellular domain expressed with a C-terminal myc-myc-hexahistidine (mfNPR1-MMH) (monkey, UniProt P16066 33-473 (human entry)); assay: SPR, mAb captured, 25 C
T3 construct: also called monomeric monkey NPR1
T3 chain: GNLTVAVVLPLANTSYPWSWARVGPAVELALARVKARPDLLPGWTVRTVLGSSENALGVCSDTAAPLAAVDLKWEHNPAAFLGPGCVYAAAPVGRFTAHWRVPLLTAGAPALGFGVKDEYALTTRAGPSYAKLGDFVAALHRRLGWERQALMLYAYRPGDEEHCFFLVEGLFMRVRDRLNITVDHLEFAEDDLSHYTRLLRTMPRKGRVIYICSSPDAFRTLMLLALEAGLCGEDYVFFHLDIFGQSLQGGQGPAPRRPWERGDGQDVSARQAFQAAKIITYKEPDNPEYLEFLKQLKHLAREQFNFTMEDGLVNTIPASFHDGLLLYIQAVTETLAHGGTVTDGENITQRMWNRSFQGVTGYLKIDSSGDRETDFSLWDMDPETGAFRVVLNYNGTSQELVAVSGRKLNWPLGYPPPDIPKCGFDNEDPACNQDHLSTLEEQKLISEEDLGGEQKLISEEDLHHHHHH
Method: as §1

[4] = target: T4, mouse NPR1 extracellular domain expressed with a C-terminal myc-myc-hexahistidine (mNPR1-MMH) (mouse, UniProt P18293 29-469); assay: SPR, mAb captured, 25 C
Method: as §1

[5] = target: T5, human NPR1 extracellular domain expressed with a C-terminal mouse IgG2a (hNPR1-mFc) (human); assay: SPR, mAb captured, 25 C
T5 construct: also called hNPR1-Fc; human NPR1 dimer
T5 chain: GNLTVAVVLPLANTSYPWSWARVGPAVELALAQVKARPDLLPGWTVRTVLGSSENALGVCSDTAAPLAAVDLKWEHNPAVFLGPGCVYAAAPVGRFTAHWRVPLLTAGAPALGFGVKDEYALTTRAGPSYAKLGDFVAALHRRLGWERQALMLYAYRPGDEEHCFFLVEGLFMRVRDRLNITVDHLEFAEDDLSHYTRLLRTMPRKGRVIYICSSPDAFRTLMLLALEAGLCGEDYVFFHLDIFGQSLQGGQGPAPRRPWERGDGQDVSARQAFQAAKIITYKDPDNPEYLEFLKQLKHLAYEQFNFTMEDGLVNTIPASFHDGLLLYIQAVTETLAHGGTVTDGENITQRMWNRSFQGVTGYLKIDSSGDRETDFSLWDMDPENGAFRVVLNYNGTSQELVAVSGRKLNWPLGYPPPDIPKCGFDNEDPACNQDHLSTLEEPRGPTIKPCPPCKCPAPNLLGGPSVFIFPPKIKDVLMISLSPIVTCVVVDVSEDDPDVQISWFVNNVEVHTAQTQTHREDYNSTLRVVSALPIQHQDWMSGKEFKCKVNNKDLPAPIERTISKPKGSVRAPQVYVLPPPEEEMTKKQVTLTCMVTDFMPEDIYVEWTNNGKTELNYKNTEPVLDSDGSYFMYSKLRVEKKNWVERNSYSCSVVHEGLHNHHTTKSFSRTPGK
Method: as §1

[6] = target: T2, human NPR1 extracellular domain …; assay: SPR, mAb captured, 37 C
Method: as §1

[7] = target: T3, monkey NPR1 extracellular domain …; assay: SPR, mAb captured, 37 C
Method: as §1

[8] = target: T4, mouse NPR1 extracellular domain …; assay: SPR, mAb captured, 37 C
Method: as §1

[9] = target: T5, human NPR1 extracellular domain …; assay: SPR, mAb captured, 37 C
Method: as §1

B1: mAb25497 (antibody, V domains shown)
VH: QVQLVQSGAEVKEPGASVKVSCKASGYTFTDYYIHWVRQAPGQGLEWMGWINLNSGGKNHAQKFQGRVTVTSDTSINTAYIELGRLRGDDTAVYYCSRGGGSHYYYYYHGMDVWGQGTTVTVSS
VL: DIQMTQSPSSLSASVGDRITITCRASHSIDSYLNWYQQKPGKAPKLLIYPASTLQSGVPSRFSGSGSGTDFTLTISSLQPEDSAIYYCQQSYSTPLTFGGGTKVEIK
In the case of B1, the binding result [1] is reported as “no binding”, the “100 nM Ag Bound (RU)” value [2] is reported as 22 RU and the Kd [2] is reported as 52.7 nM. For the same binder, the koff [2] was 0.00167 s⁻¹, the kon [2] was 31700 M⁻¹ s⁻¹ and the t½ [2] was 6.9 min. The “100 nM Ag Bound (RU)” value [3] was 49 RU, the Kd [3] was 59.8 nM and the koff [3] was 0.00226 s⁻¹. The kon [3] was 37800 M⁻¹ s⁻¹, the t½ [3] was 5.1 min and the “100 nM Ag Bound (RU)” value [4] was 0 RU. The binding result [4] was “no binding (tested: 100 nM)”, the “100 nM Ag Bound (RU)” value [5] was 49 RU and the Kd [5] was 0.238 nM. It also gave a koff [5] of 4.83e-05 s⁻¹, a kon [5] of 203000 M⁻¹ s⁻¹ and a t½ [5] of 239 min. The “100 nM Ag Bound (RU)” value [6] was 31 RU, the Kd [6] was 139 nM and the koff [6] was 0.00258 s⁻¹. The kon [6] was 18600 M⁻¹ s⁻¹, the t½ [6] was 4.5 min and the “100 nM Ag Bound (RU)” value [7] was 69 RU. For the same binder, the Kd [7] was 139 nM, the koff [7] was 0.00384 s⁻¹ and the kon [7] was 27700 M⁻¹ s⁻¹. The t½ [7] was 3 min, the “100 nM Ag Bound (RU)” value [8] was 0 RU and the “100 nM Ag Bound (RU)” value [9] was 43 RU. For the same binder, the Kd [9] was 7.31 nM, the koff [9] was 0.00031 s⁻¹ and the kon [9] was 42300 M⁻¹ s⁻¹. For the same binder, the t½ [9] was 37.3 min.

B2: mAb25498 (antibody, V domains shown)
VH: QVQLVESGGGVVQPGRSLRLSCVASGFTFSSYGMVWVRQTPGKGLEWVAVIWHDGTNNYYADSVKGRFTISRDNSKNTLYLQMNSLRAEDTAVYYCAREPWLVRGYYYYAMDVWGQGTTVTVSS
VL: not shown
For B2, the binding result [1] was “no binding”, the “100 nM Ag Bound (RU)” value [2] was 68 RU and the Kd [2] was 81 nM. For the same binder, the koff [2] was 0.00182 s⁻¹, the kon [2] was 22500 M⁻¹ s⁻¹ and the t½ [2] was 6.3 min. The “100 nM Ag Bound (RU)” value [3] was 114 RU, the Kd [3] was 27.2 nM and the koff [3] was 0.00158 s⁻¹. For the same binder, the kon [3] was 57900 M⁻¹ s⁻¹, the t½ [3] was 7.3 min and the “100 nM Ag Bound (RU)” value [4] was 0 RU. For the same binder, the binding result [4] was “no binding (tested: 100 nM)”, the “100 nM Ag Bound (RU)” value [5] was 94 RU and the Kd [5] was 3.65 nM. For the same binder, the koff [5] was 0.000255 s⁻¹, the kon [5] was 69800 M⁻¹ s⁻¹ and the t½ [5] was 45.3 min. For the same binder, the “100 nM Ag Bound (RU)” value [6] was 97 RU, the Kd [6] was 184 nM and the koff [6] was 0.00415 s⁻¹. The kon [6] was 22500 M⁻¹ s⁻¹, the t½ [6] was 2.8 min and the “100 nM Ag Bound (RU)” value [7] was 151 RU. It also gave a Kd [7] of 52.1 nM, a koff [7] of 0.00369 s⁻¹ and a kon [7] of 70700 M⁻¹ s⁻¹. For the same binder, the t½ [7] was 3.1 min, the “100 nM Ag Bound (RU)” value [8] was 0 RU and the “100 nM Ag Bound (RU)” value [9] was 129 RU. It also gave a Kd [9] of 6.41 nM, a koff [9] of 0.000568 s⁻¹ and a kon [9] of 88600 M⁻¹ s⁻¹. The t½ [9] was 20.3 min.

B3: mAb22805 (antibody, V domains shown)
VH: QVQLVESGGGVVQPGRSLRLSCAASGFTFSTYGMHWVRQAPGKGLEWVALIWNDGSNKYYADSVKGRFTISRDNSKNTLDLQMNSLRAEDTAVYYCARLNTRITGTTNLDYWGQGTLVTVSS
VL: DIQMTQSPSSLSASVGDRVTVSCRASQSIANYLNWYQQKPGKAPNLLIYGAYTLQSGVPSRFRGSGSGTDFTLTISSLQPEDFATYYCQQTYSTPPITFGQGTRLEIK
B3 was tested, and the binding result [1] was “no binding”, the “100 nM Ag Bound (RU)” value [2] was 0 RU and the binding result [2] was “no binding (tested: 100 nM)”. For the same binder, the “100 nM Ag Bound (RU)” value [3] was 0 RU, the binding result [3] was “no binding (tested: 100 nM)” and the “100 nM Ag Bound (RU)” value [4] was 0 RU. The binding result [4] was “no binding (tested: 100 nM)”, the “100 nM Ag Bound (RU)” value [5] was 2 RU and the binding result [5] was “no binding (tested: 100 nM)”. The “100 nM Ag Bound (RU)” value [6] was 1 RU, the “100 nM Ag Bound (RU)” value [7] was 3 RU and the “100 nM Ag Bound (RU)” value [8] was 1 RU. For the same binder, the “100 nM Ag Bound (RU)” value [9] was 8 RU.
